In US20100150924A1 (published 2010):

B1: Necl1-Fc (extracellular domain of Necl1 fused to the constant region of human IgG1) (Fc fusion)
chain: NLSQDGYWQEQDLELGTPAPLEEALSSTVWSNPDLLASQDSQPWTSDETVVAGGTVVLKCQVKDHEDSSLQWSNPAQQTLYFGEKRALRDNRIQLVSSTPHELSISISNVALADEGEYTCSIFTMPVRTAKSLVTVLGIPQKPIITGYKSSLREKETATLNCQSSGSKPAAQLAWRKGDQELHGDQTRIQEDPNGKTFTVSSSVSFQVTRDDDGANVVCSVNHESLKGADRSTSQRIEVLYTPTAMIRPEPAHPREGQKLLLHCEGRGNPVPQQYVWVKEGSEPPLKMTQESALIFPFLNKSDSGTYGCTATSNMGSYTAYFTLNVNDPSPVPSSSST
notes: Produced in HEK 293T cells; also called soluble Necl1; Nel1-Fc; not shown: constant region (Fc) of human IgG1
B2: Necl4-Fc (extracellular domain of Necl4 fused to the constant region of human IgG1) (Fc fusion)
chain: QEVQTENVTVAEGGVAEITCRLHQYDGSIVVIQNPARQTLFFNGTRALKDERFQLEEFSPRRVRIRLSDARLEDEGGYFCQLYTEDTHHQIATLTVLVAPENPVVEVREQAVEGGEVELSCLVPRSRPAAVLRWYRDRKELKGVSSGQENGKVWSVASTVRFRVDRKDDGGIVICEAQNQALPSGHSKQTQYVLDVQYSPTARIHASQAVVREGDTLVLTCAVTGNPRPNQIRWNRGNESLPERAEAVGETLTLPGLVSADNGTYTCEAANKHGHARALYVLVVYDPGAVVEAQTSVPY
notes: also called soluble Necl-4; soluble Necl4; not shown: constant region (Fc) of human IgG1

Tests used:
[1] = biological target: T1, endogenous gliomedin on cultured rat Schwann cells (rat, UniProt Q80WL1 1-549); assay: co-clustering on rat Schwann cells after aggregation of Necl1-Fc with a secondary antibody to human Fc
T1 construct: whole, on cells; also called Gldn
T1 sequence (looked up): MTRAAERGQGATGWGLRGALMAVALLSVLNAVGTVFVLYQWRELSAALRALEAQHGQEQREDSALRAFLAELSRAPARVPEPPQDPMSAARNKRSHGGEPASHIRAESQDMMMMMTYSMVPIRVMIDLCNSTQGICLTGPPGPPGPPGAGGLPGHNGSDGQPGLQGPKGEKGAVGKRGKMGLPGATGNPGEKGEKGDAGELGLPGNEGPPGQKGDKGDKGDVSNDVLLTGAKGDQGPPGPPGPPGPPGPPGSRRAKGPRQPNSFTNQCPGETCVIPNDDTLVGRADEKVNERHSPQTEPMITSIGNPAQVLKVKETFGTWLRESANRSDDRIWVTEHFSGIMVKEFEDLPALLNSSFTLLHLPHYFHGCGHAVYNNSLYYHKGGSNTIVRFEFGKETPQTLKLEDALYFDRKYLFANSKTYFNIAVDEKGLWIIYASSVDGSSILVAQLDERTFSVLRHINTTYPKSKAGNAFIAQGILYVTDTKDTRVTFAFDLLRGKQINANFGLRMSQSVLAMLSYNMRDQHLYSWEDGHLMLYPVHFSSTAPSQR
Protocol: (§1) Binding experiments were done by incubating the cells with medium containing different the Fc-fusions proteins pre-incubated with anti human Fc-Cy3 as described previously (Eshed et al., 2005). For clustering experiments, purified DRG-neurons or isolated Schwann cells were incubated with medium containing the respective Fc-fusion protein as described above, washed once and grown for additional 24 (DRG) or 4 hours (Schwann) before fixing. Fc-perturbation experiments were preformed by adding […] purified proteins to the medium of dissociated DRG cultures 2 days before the induction of myelination. Fresh medium containing the Fc-fusion proteins was replaced every second day and the cultures were fixed and stained after 11-12 days of myelination.
To further determine whether Necl4 is the Schwann cell receptor for axonal Necls, we examined the ability of Necl1-Fc and Necl3-Fc to bind Schwann cells that were transfected with Necl4-specific siRNAs to block its expression (FIG. 10B). In contrast to Schwann cells transfected with a control siRNA, down-regulation of Necl4 in Schwann cells by siRNA abolished the binding of Necl1-Fc and Necl3-Fc. […] In a reciprocal set of experiments, reduction of Necl1 expression in DRG neurons by transfection of siRNA abolished the binding of Necl4-Fc (FIG. 11).

[2] = biological target: T2, endogenous neurofascin on cultured DRG neurons (rat, UniProt P97685 25-1240); assay: co-clustering on DRG neurons after aggregation of Necl4-Fc
T2 construct: whole, on cells
T2 sequence (looked up): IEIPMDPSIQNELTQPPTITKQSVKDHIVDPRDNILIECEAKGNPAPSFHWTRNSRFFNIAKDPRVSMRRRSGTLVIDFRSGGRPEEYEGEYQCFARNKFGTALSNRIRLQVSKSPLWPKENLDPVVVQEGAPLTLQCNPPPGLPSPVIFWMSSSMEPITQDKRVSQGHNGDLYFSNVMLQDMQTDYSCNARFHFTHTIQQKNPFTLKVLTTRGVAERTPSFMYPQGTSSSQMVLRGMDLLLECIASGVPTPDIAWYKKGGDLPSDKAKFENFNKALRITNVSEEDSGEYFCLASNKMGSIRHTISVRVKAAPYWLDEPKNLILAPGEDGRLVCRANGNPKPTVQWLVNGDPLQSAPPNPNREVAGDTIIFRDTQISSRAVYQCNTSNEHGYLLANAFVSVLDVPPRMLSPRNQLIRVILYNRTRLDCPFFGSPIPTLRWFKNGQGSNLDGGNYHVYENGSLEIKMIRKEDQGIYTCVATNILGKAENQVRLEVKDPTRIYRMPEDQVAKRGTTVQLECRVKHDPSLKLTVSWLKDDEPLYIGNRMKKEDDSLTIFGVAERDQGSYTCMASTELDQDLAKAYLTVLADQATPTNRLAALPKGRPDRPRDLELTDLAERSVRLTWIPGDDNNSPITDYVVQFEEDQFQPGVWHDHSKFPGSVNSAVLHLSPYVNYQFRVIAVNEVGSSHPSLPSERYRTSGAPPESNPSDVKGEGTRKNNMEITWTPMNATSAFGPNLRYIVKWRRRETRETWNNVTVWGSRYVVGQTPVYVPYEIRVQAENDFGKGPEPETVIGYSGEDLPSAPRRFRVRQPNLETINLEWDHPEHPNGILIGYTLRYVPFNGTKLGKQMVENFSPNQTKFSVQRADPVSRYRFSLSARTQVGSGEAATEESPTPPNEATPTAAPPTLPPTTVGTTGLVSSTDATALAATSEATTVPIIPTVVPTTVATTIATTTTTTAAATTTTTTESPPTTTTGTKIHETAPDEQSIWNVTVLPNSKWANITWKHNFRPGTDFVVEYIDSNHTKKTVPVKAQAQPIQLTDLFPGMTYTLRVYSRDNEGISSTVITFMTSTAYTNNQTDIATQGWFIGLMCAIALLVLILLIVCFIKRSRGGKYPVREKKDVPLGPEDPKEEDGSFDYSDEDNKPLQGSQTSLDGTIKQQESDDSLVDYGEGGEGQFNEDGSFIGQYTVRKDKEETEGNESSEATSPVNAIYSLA
Protocol: as §1

binding result [1]	binding result [2]	Binder
no binding		B1
	no binding	B2
